Data set [1] addresses Prototype foamy virus integrase (PFV IN) wild type, tetrameric intasome (Prototype foamy virus) (UniProt P14350). Conditions: smTIRF FRET, stalling at gap; 110 mM NaCl, 2 mM MgSO4, 24 C.
For data set [2] the target is unchanged. The conditions noted are these: smTIRF lifetime at physiological buffer; searches 1.6 kb; integration rare.

On to 60 bp target DNA with 1 or 2 base gap, for which, in data set [1], the binding (% of search events with integration) is 20. In data set [2], 23 kb naked linear DNA gave a binding of 2.1 s.
